Assay results taken from patent US20200048644A1.

Target: recombinant GPIb
Experiment: GPIb binding activity test of the purified product (format not described; FIG. 9)

B1: recombinant Agkisacutacin (heterodimer snake venom protein, A chain and B chain, expressed in Pichia pastoris GS115) (protein)
chain 1: DVDCLPGWSAYDQSCYRVFKLLKTWDDAEKFCTERPKGGHLVSIESAGERDFVAQLVSENKQTDNVWLGLKIQSKGQQCSTEWTDGSSVSYENFSEYQSKKCFVEKNTGFRTWLNLNCGSEYAFVCKSPP
chain 2: GFCCPLRWSSYEGHCYLVVKEKKTWDDAEKFCTEQRKGGHLVSVHSREEADFLVHLAYPILDLSLIWMGLSNMWNDCKREWSDGTKLDFKAWAKTSDCLIGKTDDNQWLNMDCSKKHYFVCKFKL
- Kd: 100 nM
